What is called stoichiometry N is a count of units in the complex or per binding partner.

Assay [1] addresses T1, SARS-CoV-2 Omicron LP.8.1 spike (S-6P) (SARS-CoV-2 Omicron LP.8.1, S-GSAS/6P (furin cleavage site, residues 682–685) | F817P | A892P | A899P | …).
T1 construct: also called LP.8.1 S-6P; Omicron LP.8.1.1 spike (S-6P)
As to the kind of experiment: cryo-EM structure. The conditions noted are these: both partners purified.

For assay [2], the target named is T2, SARS-CoV-2 Omicron JD.1.1 spike (S-6P) (SARS-CoV-2 Omicron JD.1.1, S-GSAS/6P (furin cleavage site, residues 682–685) | F817P | A892P | A899P | …).
T2 construct: also called JD.1.1 S-6P; Omicron JD.1.1 S-trimer (S-6P)
As to the kind of experiment: cryo-EM structure. The conditions noted are these: both partners purified.

B1: ZL525 Fab (Fab, V domains shown)
V domain 1: QVQLVQSGAEVKKPGSSMKVSCQASGGTFSSHPISWIRQAPGQGLEWMGRIIPIAGMTDYGQKFQGRITITADTSTSTSYVELRGLRSQDTAFYYCAKDVGYSDYGSAYYFHTWGQGTLITVSS
V domain 2: QSVLTQPPSVSGAPGQRVTISCTGSNSNIGAGYDVHWYQQLPGTAPKLLIYRNNKRPSGVPDRFSGSKSDTSASLAITGLQAEDEAHYYCQSFDSSLGGSLFGGGTKLAVL
Consider B1, for which the “stoichiometry N” value in assay [1] is 3 Fabs per S-trimer.

B2: R102-9 Fab (Fab, V domains shown)
VH: EVQLVESGGGLVQPGGSLRLSCAASGIIVSRNYMSWVRQAPGKRPEWVSLIYPGGSTFYADSVKGRFTISRDNSKNMLFLQMNSLRAEDTAVYYCARDLTIRGEASWGQGTLVTVSS
VL: EIVMTQSPATLSVSPGERATLSCRASQSFNSNLAWYQQKPGQAPRLLIYGASTRATGIPARFSGSGSGTEFTLTISSLQSEDFAVYYCQQYGDWPLWTFGQGTKVEIK
With B2, in assay [2], the “stoichiometry N” value came to 3 Fabs per S-trimer.

B3: C092 Fab (Fab, V domains shown)
VH: QVQLVQSGAEVKKPGSSVKVSCKASGGSFTNHFISWVRQAPGQGLEWMGRIIPILGTANYAQNFQGRVMMTADKSTSTAYMELSSLRSEDTAVYYCARDSGYSGYGSTYYMDVWGKGTTVTVSS
VL: QSVLTQPPSVSGAPGQRVTISCTGSNSNIGAGYDVHWYQQLPGAAPKLLIYGNNNRPSGVPDRFSGSKSDTSASLAITGLQVEDEADYYCQSYDSSLSDSVFGSGTKVTVL
Take B3: the “stoichiometry N” value in assay [2] was 3 Fabs per S-trimer.

B4: ZL58 Fab (Fab, V domains shown)
VH: QLELVQSGGGLVQPGGSLRLSCAASEIAVSRNYMNWVRQGPGKGLEWVSIIYPGGSTFYADSVKGRFTISTDDSKNTLYLQMDSLSTDDTALYYCARQGPNGRNDFWGQGTLVTVSS
VL: DIQMTQSPSSLSASAGERVTITCQASQDINMYLNWYQQKPGKAPKLLIYDASNLETGVPSRFSGSGSVTEFTFTISSLQPEDIGTYYCHQYDSFPPTFGGGTKVDLK
On to B4, for which, in assay [1], the “stoichiometry N” value worked out at 3 Fabs per S-trimer.

The values are drawn from publication doi:10.64898/2025.12.10.693372 (bioRxiv, 2025).
